Laboratory results from patent US20140087995A1 (published 2014).
Numbered stars: 1 amine (or outer) side, 2 acyl side, 3 side chain; on linkers, the order of the positions; unused ones are H or OH. Bridge positions count the residues as written; N and C are the ends. Side chains are listed from the residue outwards. Ends that are not written are not given here. * marks the point of attachment. C20 diacid = O=C(O)CCCCCCCCCCCCCCCCCCC(=O)*; γGlu = O=C(O)[C@H](CCC(=O)[*:2])N[*:1]

T1: human amylin 3(a) receptor (human calcitonin receptor plus RAMP-3) (human, UniProt P30988 25-474; O60896 24-148, limits assumed)
T1 sequence (looked up) 1: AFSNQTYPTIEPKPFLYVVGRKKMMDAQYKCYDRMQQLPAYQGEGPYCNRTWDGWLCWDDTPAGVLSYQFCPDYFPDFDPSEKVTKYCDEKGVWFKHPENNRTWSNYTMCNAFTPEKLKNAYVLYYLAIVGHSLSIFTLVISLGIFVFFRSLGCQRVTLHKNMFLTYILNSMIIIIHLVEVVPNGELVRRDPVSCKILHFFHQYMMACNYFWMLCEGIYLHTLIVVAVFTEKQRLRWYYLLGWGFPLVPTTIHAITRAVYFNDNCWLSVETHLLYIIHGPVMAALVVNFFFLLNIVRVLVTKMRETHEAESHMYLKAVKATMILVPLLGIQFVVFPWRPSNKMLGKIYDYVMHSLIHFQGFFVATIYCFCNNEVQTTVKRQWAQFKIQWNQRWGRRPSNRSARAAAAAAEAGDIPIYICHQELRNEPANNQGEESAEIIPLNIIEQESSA
T1 sequence (looked up) 2: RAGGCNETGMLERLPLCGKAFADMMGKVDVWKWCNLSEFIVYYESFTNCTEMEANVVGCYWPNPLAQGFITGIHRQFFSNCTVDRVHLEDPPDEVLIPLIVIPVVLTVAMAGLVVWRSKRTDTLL

T2: human calcitonin receptor (human, UniProt P30988 25-474)
T2 sequence (looked up): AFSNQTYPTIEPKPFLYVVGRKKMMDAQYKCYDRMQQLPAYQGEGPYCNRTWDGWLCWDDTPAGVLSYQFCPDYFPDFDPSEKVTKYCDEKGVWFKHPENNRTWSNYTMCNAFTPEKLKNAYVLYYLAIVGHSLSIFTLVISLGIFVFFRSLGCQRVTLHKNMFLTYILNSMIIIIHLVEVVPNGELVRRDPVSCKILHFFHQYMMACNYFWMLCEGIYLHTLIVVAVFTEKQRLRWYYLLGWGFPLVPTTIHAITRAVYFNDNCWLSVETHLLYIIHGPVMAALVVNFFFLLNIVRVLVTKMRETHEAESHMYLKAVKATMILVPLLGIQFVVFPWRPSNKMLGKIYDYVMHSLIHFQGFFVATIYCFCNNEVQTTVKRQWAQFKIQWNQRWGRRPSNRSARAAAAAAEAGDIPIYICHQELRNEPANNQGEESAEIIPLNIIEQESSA


Key:
[1] = biological target: T1, human amylin 3(a) receptor (human …); experiment: cell-based or functional assay
[2] = biological target: T2, human calcitonin receptor; experiment: cell-based or functional assay
[3] = biological target: T1, human amylin 3(a) receptor (human …); experiment: SPA competition binding, displacement of 125I-rat amylin from membranes of Amylin 3(a)/CRE-luc BHK cells (Assay V)
Procedure, shortened: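 SPA beads with BHK Amylin 3(a)/CRE-luc cell membranes (35 ng/μL final) in 50 mM Hepes pH 7.4, 1 mM CaCl2, 5 mM MgCl₂, 0.1% OA, 0.02% Tween20.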

Binder	Ratio hCT/hAmylin funct. [1]	hAmylin-R funct. EC50 [1]	hCTR funct. EC50 [2]	IC50 [3]
K([γGlu-C20 diacid])CNTATCATQRLAEFLRHSSPNFGAIPSSTNVGRETY-NH2 (disulfide 2-7; N-terminus assumed; SMILES CC[C@H](C)[C@H](NC(=O)[C@H](C)NC(=O)CNC(=O)[C@H](Cc1ccccc1)NC(=O)[C@H](CC(N)=O)NC(=O)[C@@H]1CCCN1C(=O)[C@H](CO)NC(=O)[C@H](CO)NC(=O)[C@H](Cc1c[nH]cn1)NC(=O)[C@H](CCCNC(=N)N)NC(=O)[C@H](CC(C)C)NC(=O)[C@H](Cc1ccccc1)NC(=O)[C@H](CCC(=O)O)NC(=O)[C@H](C)NC(=O)[C@H](CC(C)C)NC(=O)[C@H](CCCNC(=N)N)NC(=O)[C@H](CCC(N)=O)NC(=O)[C@@H](NC(=O)[C@H](C)NC(=O)[C@@H]1CSSC[C@H](NC(=O)[C@@H](N)CCCCNC(=O)CC[C@H](NC(=O)CCCCCCCCCCCCCCCCCCC(=O)O)C(=O)O)C(=O)N[C@@H](CC(N)=O)C(=O)N[C@@H]([C@@H](C)O)C(=O)N[C@@H](C)C(=O)N[C@@H]([C@@H](C)O)C(=O)N1)[C@@H](C)O)C(=O)N1CCC[C@H]1C(=O)N[C@@H](CO)C(=O)N[C@@H](CO)C(=O)N[C@H](C(=O)N[C@@H](CC(N)=O)C(=O)N[C@H](C(=O)NCC(=O)N[C@@H](CCCNC(=N)N)C(=O)N[C@@H](CCC(=O)O)C(=O)N[C@H](C(=O)N[C@@H](Cc1ccc(O)cc1)C(N)=O)[C@@H](C)O)C(C)C)[C@@H](C)O)	6.5	0.421 nM	2.75 nM	0.232 nM
K([γGlu-C20 diacid])CNTATCATQRLAEFLRHSSPNFGAIPSSTNVGSRTY-NH2 (disulfide 2-7; N-terminus assumed; SMILES CC[C@H](C)[C@H](NC(=O)[C@H](C)NC(=O)CNC(=O)[C@H](Cc1ccccc1)NC(=O)[C@H](CC(N)=O)NC(=O)[C@@H]1CCCN1C(=O)[C@H](CO)NC(=O)[C@H](CO)NC(=O)[C@H](Cc1c[nH]cn1)NC(=O)[C@H](CCCNC(=N)N)NC(=O)[C@H](CC(C)C)NC(=O)[C@H](Cc1ccccc1)NC(=O)[C@H](CCC(=O)O)NC(=O)[C@H](C)NC(=O)[C@H](CC(C)C)NC(=O)[C@H](CCCNC(=N)N)NC(=O)[C@H](CCC(N)=O)NC(=O)[C@@H](NC(=O)[C@H](C)NC(=O)[C@@H]1CSSC[C@H](NC(=O)[C@@H](N)CCCCNC(=O)CC[C@H](NC(=O)CCCCCCCCCCCCCCCCCCC(=O)O)C(=O)O)C(=O)N[C@@H](CC(N)=O)C(=O)N[C@@H]([C@@H](C)O)C(=O)N[C@@H](C)C(=O)N[C@@H]([C@@H](C)O)C(=O)N1)[C@@H](C)O)C(=O)N1CCC[C@H]1C(=O)N[C@@H](CO)C(=O)N[C@@H](CO)C(=O)N[C@H](C(=O)N[C@@H](CC(N)=O)C(=O)N[C@H](C(=O)NCC(=O)N[C@@H](CO)C(=O)N[C@@H](CCCNC(=N)N)C(=O)N[C@H](C(=O)N[C@@H](Cc1ccc(O)cc1)C(N)=O)[C@@H](C)O)C(C)C)[C@@H](C)O, also called compound 51)	14	0.372 nM	5.22 nM	0.828 nM
K([γGlu-C20 diacid])CNTATCATQRLAEFLRHSSPNFGAIPSSTNVGHETY-NH2 (disulfide 2-7; N-terminus assumed; SMILES CC[C@H](C)[C@H](NC(=O)[C@H](C)NC(=O)CNC(=O)[C@H](Cc1ccccc1)NC(=O)[C@H](CC(N)=O)NC(=O)[C@@H]1CCCN1C(=O)[C@H](CO)NC(=O)[C@H](CO)NC(=O)[C@H](Cc1c[nH]cn1)NC(=O)[C@H](CCCNC(=N)N)NC(=O)[C@H](CC(C)C)NC(=O)[C@H](Cc1ccccc1)NC(=O)[C@H](CCC(=O)O)NC(=O)[C@H](C)NC(=O)[C@H](CC(C)C)NC(=O)[C@H](CCCNC(=N)N)NC(=O)[C@H](CCC(N)=O)NC(=O)[C@@H](NC(=O)[C@H](C)NC(=O)[C@@H]1CSSC[C@H](NC(=O)[C@@H](N)CCCCNC(=O)CC[C@H](NC(=O)CCCCCCCCCCCCCCCCCCC(=O)O)C(=O)O)C(=O)N[C@@H](CC(N)=O)C(=O)N[C@@H]([C@@H](C)O)C(=O)N[C@@H](C)C(=O)N[C@@H]([C@@H](C)O)C(=O)N1)[C@@H](C)O)C(=O)N1CCC[C@H]1C(=O)N[C@@H](CO)C(=O)N[C@@H](CO)C(=O)N[C@H](C(=O)N[C@@H](CC(N)=O)C(=O)N[C@H](C(=O)NCC(=O)N[C@@H](Cc1c[nH]cn1)C(=O)N[C@@H](CCC(=O)O)C(=O)N[C@H](C(=O)N[C@@H](Cc1ccc(O)cc1)C(N)=O)[C@@H](C)O)C(C)C)[C@@H](C)O, also called compound 107)	6.3	0.405 nM	2.54 nM	0.387 nM

Continued, values first:

Ratio hCT/hAmylin funct. [1]	hAmylin-R funct. EC50 [1]	hCTR funct. EC50 [2]	IC50 [3]	Binder
–	0.376 nM	6.38 nM	0.163 nM	K([γGlu-C20 diacid])CNTATCATQRLAEFLRHSSPNFGAIPSSTNVGPRTY-NH2 (disulfide 2-7; N-terminus assumed; SMILES CC[C@H](C)[C@H](NC(=O)[C@H](C)NC(=O)CNC(=O)[C@H](Cc1ccccc1)NC(=O)[C@H](CC(N)=O)NC(=O)[C@@H]1CCCN1C(=O)[C@H](CO)NC(=O)[C@H](CO)NC(=O)[C@H](Cc1c[nH]cn1)NC(=O)[C@H](CCCNC(=N)N)NC(=O)[C@H](CC(C)C)NC(=O)[C@H](Cc1ccccc1)NC(=O)[C@H](CCC(=O)O)NC(=O)[C@H](C)NC(=O)[C@H](CC(C)C)NC(=O)[C@H](CCCNC(=N)N)NC(=O)[C@H](CCC(N)=O)NC(=O)[C@@H](NC(=O)[C@H](C)NC(=O)[C@@H]1CSSC[C@H](NC(=O)[C@@H](N)CCCCNC(=O)CC[C@H](NC(=O)CCCCCCCCCCCCCCCCCCC(=O)O)C(=O)O)C(=O)N[C@@H](CC(N)=O)C(=O)N[C@@H]([C@@H](C)O)C(=O)N[C@@H](C)C(=O)N[C@@H]([C@@H](C)O)C(=O)N1)[C@@H](C)O)C(=O)N1CCC[C@H]1C(=O)N[C@@H](CO)C(=O)N[C@@H](CO)C(=O)N[C@H](C(=O)N[C@@H](CC(N)=O)C(=O)N[C@H](C(=O)NCC(=O)N1CCC[C@H]1C(=O)N[C@@H](CCCNC(=N)N)C(=O)N[C@H](C(=O)N[C@@H](Cc1ccc(O)cc1)C(N)=O)[C@@H](C)O)C(C)C)[C@@H](C)O)
5.2	0.161 nM	0.841 nM	0.14 nM	K([γGlu-C20 diacid])CNTATCATQRLAEFLRHSSPNFGAIPSSTNVGPETY-NH2 (disulfide 2-7; N-terminus assumed; SMILES CC[C@H](C)[C@H](NC(=O)[C@H](C)NC(=O)CNC(=O)[C@H](Cc1ccccc1)NC(=O)[C@H](CC(N)=O)NC(=O)[C@@H]1CCCN1C(=O)[C@H](CO)NC(=O)[C@H](CO)NC(=O)[C@H](Cc1c[nH]cn1)NC(=O)[C@H](CCCNC(=N)N)NC(=O)[C@H](CC(C)C)NC(=O)[C@H](Cc1ccccc1)NC(=O)[C@H](CCC(=O)O)NC(=O)[C@H](C)NC(=O)[C@H](CC(C)C)NC(=O)[C@H](CCCNC(=N)N)NC(=O)[C@H](CCC(N)=O)NC(=O)[C@@H](NC(=O)[C@H](C)NC(=O)[C@@H]1CSSC[C@H](NC(=O)[C@@H](N)CCCCNC(=O)CC[C@H](NC(=O)CCCCCCCCCCCCCCCCCCC(=O)O)C(=O)O)C(=O)N[C@@H](CC(N)=O)C(=O)N[C@@H]([C@@H](C)O)C(=O)N[C@@H](C)C(=O)N[C@@H]([C@@H](C)O)C(=O)N1)[C@@H](C)O)C(=O)N1CCC[C@H]1C(=O)N[C@@H](CO)C(=O)N[C@@H](CO)C(=O)N[C@H](C(=O)N[C@@H](CC(N)=O)C(=O)N[C@H](C(=O)NCC(=O)N1CCC[C@H]1C(=O)N[C@@H](CCC(=O)O)C(=O)N[C@H](C(=O)N[C@@H](Cc1ccc(O)cc1)C(N)=O)[C@@H](C)O)C(C)C)[C@@H](C)O)
–	0.101 nM	1.45 nM	0.179 nM	K([γGlu-C20 diacid])CNTATCATQRLAEFLRHSSPNFGAIPSSTNVGPHTY-NH2 (disulfide 2-7)
